The target of this test is HexaPro, recombinant SARS-CoV-2 spike protein vaccine candidate (SARS-CoV-2) (UniProt P0DTC2). As to the kind of experiment: SEC; […], PBS ([…], pH 6.5), 1.25 mL/min, […].

Broadly, the stoichiometry N is the number of molecules, sites or subunits per partner or assembly. In the case of “HexaPro, recombinant SARS-CoV-2 spike protein vaccine candidate (from UniProt P0DTC2 14-1273) (natural protein)”, the stoichiometry N was 3.
